Laboratory results as given in patent US20090012270A1 (MEDICAL RESEARCH COUNCIL, published 2009).

Target: T1, mouse OX2 (mouse, UniProt O54901 31-278)
T1 construct: whole, on cells; also called ligand OX2 (mouse); normally expressed mouse OX2
T1 sequence (looked up): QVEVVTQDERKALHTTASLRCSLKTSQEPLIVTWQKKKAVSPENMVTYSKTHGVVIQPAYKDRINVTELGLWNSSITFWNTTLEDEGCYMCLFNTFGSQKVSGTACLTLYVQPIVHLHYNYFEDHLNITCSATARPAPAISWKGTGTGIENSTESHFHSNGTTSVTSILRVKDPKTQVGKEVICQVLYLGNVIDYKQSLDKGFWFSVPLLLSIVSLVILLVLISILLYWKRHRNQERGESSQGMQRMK
Experiment: immunoperoxidase staining of mouse spleen sections, detected with anti-human Fc
Procedure: To determine function of OX2-OX2R interaction in vitro and in vivo, an adenovirus construct was prepared that produced in soluble form, the extracellular region of OX2RH1 fused to human IgG. A control construct was prepared that produced in soluble form, only the human IgG backbone. In the first instance, supernatants containing these fusion proteins were produced by cellular infection in vitro to test whether the OX2R fusion protein had biological function on the basis of binding to normally expressed mouse OX2. In the first series of studies, tissue sections of mouse spleen from normal as well as OX2-gene knockout (KO) mice, were prepared and OX2R, or control fusion proteins were added, and these reagents detected by addition of an antibody binding to the human Fc portion of the fusion protein, and subsequent immunoperoxidase staining procedures to reveal binding. Weak binding only of the OX2R fusion protein, and only in normal but not OX2 KO mice, was detected on follicular dendritic cells and endothelial cells. Both cell types are know to express very high levels of the ligand OX2.

B1: human IgG-mouse OX2RH1 fusion protein (extracellular region of OX2RH1 fused to human IgG) (Fc fusion)
chain: TDKNQTTQNNSSSPLTQVNTTVSVQIGTKALLCCFSIPLTKAVLITWIIKLRGLPSCTIAYKVDTKTNETSCLGRNITWASTPDHSPELQISAVTLQHEGTYTCETVTPEGNFEKNYDLQVLVPPEVTYFPEKNRSAVCEAMAGKPAAQISWSPDGDCVTTSESHSNGTVTVRSTCHWEQNNVSDVSCIVSHLTGNQSLSIELSRGGNQSLRP
notes: Soluble protein from cells infected with an adenovirus construct; also called OX2R fusion protein; Ig-OX2R fusion protein; not shown: human IgG backbone with the human Fc portion
B1: binds.
